In assay [1] the target is HLA-A*02:01. The experiment in a line: IEDB peptide-MHC binding, purified MHC/competitive/fluorescence; filed as Kd, often an IC50 or EC50 that approximates it; ≥ and ≤ were set here for values at or beyond the usual limits of such assays.
The target of assay [2] is HLA-A*02:03. Described as above.
The target of assay [3] is HLA-A*02:11. The assay is described as above.
The target of assay [4] is HLA-A*02:12. Described as above.
Assay [5] concerns the target HLA-A*02:16. The description is as above.
For assay [6], the target named is HLA-A*02:19. The description is as above.
Assay [7] addresses HLA-A*03:01. The description is as above.
The target of assay [8] is HLA-A*23:01. Described as above.
Assay [9] concerns the target HLA-A*24:03. Described as above.
Assay [10] concerns the target HLA-A*26:01. The description is as above.
Assay [11] addresses HLA-A*29:02. Described as above.
For assay [12], the target named is HLA-A*68:02. The description is as above.
Assay [13] concerns the target HLA-A*69:01. The assay is described as above.
For assay [14], the target named is HLA-B*15:01. The assay is described as above.
In assay [15] the target is HLA-B*15:17. Described as above.
Assay [16] has as its target HLA-B*18:01. Described as above.
Assay [17] addresses HLA-B*27:03. The description is as above.
For assay [18], the target named is HLA-B*39:01. The description is as above.
For assay [19], the target named is HLA-B*46:01. Described as above.
Assay [20] has as its target HLA-B*57:01. The description is as above.
The target in assay [21] is HLA-A*02:01. The assay is described as follows: IEDB peptide-MHC binding, purified MHC/direct/fluorescence; filed as Kd, often an IC50 or EC50 that approximates it; ≥ and ≤ were set here for values at or beyond the usual limits of such assays.
Assay [22] has as its target HLA-A*02:11. The assay is described as above.
Assay [23] addresses HLA-A*69:01. The description is as above.
Assay [24] deals with HLA-C*12:03. Described as above. As to conditions: source organism: Salmonella enterica subsp. enterica serovar Typhi.
The target in assay [25] is HLA-A*02:50. The experiment in a line: IEDB peptide-MHC binding, purified MHC/competitive/fluorescence; filed as Kd, often an IC50 or EC50 that approximates it; ≥ and ≤ were set here for values at or beyond the usual limits of such assays.
The target of assay [26] is HLA-A*31:01. The assay is described as above. The following applies: source organism: Canarypox virus.
Assay [27] has as its target HLA-B*51:01. The description is as above.
Assay [28] addresses HLA-B*15:09. The experiment in a line: IEDB peptide-MHC binding, purified MHC/direct/fluorescence; filed as Kd, often an IC50 or EC50 that approximates it; ≥ and ≤ were set here for values at or beyond the usual limits of such assays. As to conditions: source organism: Variola virus.
Assay [29] has as its target HLA-B*39:01. The assay is described as above. The following applies: source organism: Camelpox virus CMS.
Setting [30] is: source organism: Yersinia pestis Nepal516.
The mark [31] stands for this setting: source organism: Salmonella enterica subsp. enterica serovar Typhi.
Setting [32] is: source organism: Canarypox virus.
The mark [33] stands for this setting: source organism: Vibrio parahaemolyticus RIMD 2210633.
Where [34] appears, read: source organism: Coxiella burnetii 'MSU Goat Q177'.
Setting [35] is: source organism: Mycobacterium tuberculosis.

A value given as a limit tells only on which side of the number the result lay.

Regarding YADGGQWYN, the equilibrium dissociation constant (Kd) is at least 20 µM in assay [1] (setting [30]); at least 20 µM in assay [2] (setting [30]); 0.0562 µM in [3] (setting [30]); at least 20 µM in [4] (setting [30]); at least 20 µM in [5] (setting [30]); at least 20 µM in assay [6] (setting [30]). Also, the Kd in assay [7] (setting [30]), in assay [8] (setting [30]), in assay [9] (setting [30]), in assay [10] (setting [30]), in [11] (setting [30]) and in assay [12] (setting [30]) was at least 20 µM in each case. The Kd in assay [13] (setting [30]), in assay [14] (setting [30]), in assay [15] (setting [30]), in [16] (setting [30]), in assay [17] (setting [30]) and in assay [18] (setting [30]) was at least 20 µM in each case. Further, the Kd in assay [19] (setting [30]) and in assay [20] (setting [30]) was at least 20 µM each time.

As for FIKNPACTV, the Kd in assay [21] (setting [31]) was 6.36 µM; in assay [22] (setting [31]), 0.002 µM; in assay [23] (setting [31]), 0.154 µM; in [24] it was at most 0.001 µM; in assay [25] (setting [31]) it was 0.0019 µM.

In the case of GTIIVHPNK, the Kd in assay [1] (setting [32]), in assay [2] (setting [32]), in assay [3] (setting [32]), in assay [4] (setting [32]), in assay [5] (setting [32]) and in [6] (setting [32]) was at least 20 µM throughout. The Kd is at least 20 µM in assay [8] (setting [32]); at least 20 µM in [9] (setting [32]); at least 20 µM in assay [10] (setting [32]); 0.101 µM in assay [26]; at least 20 µM in [12] (setting [32]); at least 20 µM in assay [13] (setting [32]). In addition, the Kd in assay [14] (setting [32]), in assay [15] (setting [32]), in assay [16] (setting [32]), in assay [17] (setting [32]), in assay [18] (setting [32]) and in assay [19] (setting [32]) was at least 20 µM in each case. For the same sequence, the Kd in [27] (setting [32]) and in [20] (setting [32]) was at least 20 µM in each case.

Regarding GTVPTDNPF, the Kd in assay [1] (setting [33]), in assay [2] (setting [33]), in assay [3] (setting [33]), in assay [4] (setting [33]), in assay [5] (setting [33]) and in assay [6] (setting [33]) was at least 20 µM throughout. Besides, the Kd in assay [7] (setting [33]), in assay [8] (setting [33]), in [9] (setting [33]), in [10] (setting [33]), in [12] (setting [33]) and in assay [13] (setting [33]) was at least 20 µM each time. Further, the Kd in assay [16] (setting [33]) is at least 20 µM; in [17] (setting [33]) it was at least 20 µM; in [18] (setting [33]), at least 20 µM; in assay [19] (setting [33]) it was at least 20 µM; in assay [27] (setting [33]) it was at least 20 µM; in [20] (setting [33]) it was 5.47 µM.

Regarding AVDWYQQRI, the Kd in assay [1] (setting [34]) is at least 20 µM; in assay [2] (setting [34]), at least 20 µM; in assay [3] (setting [34]), at least 20 µM; in assay [4] (setting [34]), at least 20 µM; in [5] (setting [34]) it was 0.36 µM; in [6] (setting [34]) it was at least 20 µM. Moreover, the Kd in assay [7] (setting [34]), in [8] (setting [34]), in assay [9] (setting [34]), in assay [10] (setting [34]), in [11] (setting [34]) and in [12] (setting [34]) was at least 20 µM in each case. For the same sequence, the dissociation constant (Kd) in [13] (setting [34]), in assay [14] (setting [34]), in assay [15] (setting [34]), in assay [16] (setting [34]), in assay [17] (setting [34]) and in assay [18] (setting [34]) was at least 20 µM each time. The Kd in assay [19] (setting [34]), in assay [27] (setting [34]) and in assay [20] (setting [34]) was at least 20 µM in each case.

As to SFYGYGFNV, the Kd stood at 0.413 µM in [21] (setting [35]), 0.01 µM in [22] (source organism: Mycobacterium tuberculosis str. Haarlem), 0.052 µM in assay [23] (setting [35]) and 0.0224 µM in assay [25] (source organism: Mycobacterium tuberculosis H37Ra).

AHDELENYI: the figures for the Kd in assay [28] and in [29] were 1.67 µM and 2.86 µM, respectively.

What is called Kd is the equilibrium constant for the complex coming apart. Low readings indicate a tighter complex, high ones a looser complex.

For the origin of these results see the Immune Epitope Database (IEDB).
